Experimental findings from patent publication US20060269557A1 (CITY OF HOPE, published 2006) are described below.

Positions count from the first letter of the chain named. In names and notes the source's numbering stands.

Assay [1] has as its target T1, soluble PSCA fused human IgG1 or mouse IgG2a Fc (UniProt O43653 12-86, limits assumed).
T1 construct: also called PSCA-Fc; not shown: human IgG1 Fc or mouse IgG2a Fc
T1 sequence (looked up): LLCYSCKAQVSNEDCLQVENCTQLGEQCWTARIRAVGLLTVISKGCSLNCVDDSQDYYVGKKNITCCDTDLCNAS
The experiment in a line: competitive ELISA on coated PSCA-Fc, biotinylated mu1G8 as tracer. On the procedure: (§1) The relative binding affinities of the antibodies were measured by competitive ELISA using biotinylated mu1G8 as tracer. Wells were coated with soluble PSCA fused human IgG1 or mouse IgG2a Fc that had been expressed in pEE12 as described above and purified by Protein A affinity chromatography (Poros2.0; PerkinElmer, Wellesley, Mass.). A fixed concentration of biotinylated parental antibody and increasing concentrations of non-biotinylated competitors were used as previously described (Olafsen 2004). Detection of biotinylated antibody was made with alkaline phosphatase-conjugated streptavidin (Jackson ImmunoResearch Laboratories).

Assay [2] addresses T1, soluble PSCA fused human IgG1 or mouse …. The experiment in a line: relative binding affinity, competitive ELISA. On the procedure:
as §1

B1: murine monoclonal antibody 1G8 (antibody, V domains shown)
VH: EVQLQQSGAELVRSGASVKLSCTASGFNIKDYYIHWVNQRPDQGLEWIGWIDPENGDTEFVPKFQGKATMTADIFSNTAYLHLSSLTSEDTAVYYCKTGGFWGQGTLVTVSA
VL: QVVLTQSPAIMSASPGEKVTMACSASSSVRFIHWYQQKSGTSPKRWIYDTSKLASGVPTRFSGSGSGTSYSLTISTMEAEDAATYYCQQWSSSPFTFGSGTKLIIK
notes: Intact murine antibody from hybridoma; also called mu1G8; parental mu1G8
As for B1, in assay [1], the Kd was approximately 5 nM.

B2: humanized 1G8 antibody hu1G8-B (antibody, V domains shown)
VH: EVQLVESGGGLVQPGGSLRLSCAASGFNIKDYYIHWVRQAPGKGLEWVAWIDPENGDTEFVPKFQGRATISADTSKNTAYLQMNSLRAEDTAVYYCKTGGFWGQGTLVTVSS
VL: DIQLTQSPSSLSASVGDRVTITCSASSSVRFIHWYQQKPGKAPKRLIYDTSKLASGVPSRFSGSGSGTDFTLTISSLQPEDFATYYCQQWSSSPFTFGQGTKVEIK
notes: Labelled with 124I in the immunoreactivity assays; also called M6B; clone 2B3
B2: in assay [2], the “fold higher relative binding affinity compared to hu1G8-A” value worked out at 6 fold and the “fold lower binding affinity than mu1G8” value was approximately 5 fold. Further, in assay [1], the Kd is approximately 25 nM.

B3: humanized 1G8 antibody hu1G8-A (antibody, V domains shown)
VH: B2 VH with V61A, P62D, K63S, F64V, Q65K, A68F
VL: B2 VL
notes: also called M6A
Take B3: the Kd in assay [1] was approximately 150 nM.
